# T1: murine STING (Mus musculus, UniProt Q3TBT3)
# T1 sequence (Q3TBT3 1-378): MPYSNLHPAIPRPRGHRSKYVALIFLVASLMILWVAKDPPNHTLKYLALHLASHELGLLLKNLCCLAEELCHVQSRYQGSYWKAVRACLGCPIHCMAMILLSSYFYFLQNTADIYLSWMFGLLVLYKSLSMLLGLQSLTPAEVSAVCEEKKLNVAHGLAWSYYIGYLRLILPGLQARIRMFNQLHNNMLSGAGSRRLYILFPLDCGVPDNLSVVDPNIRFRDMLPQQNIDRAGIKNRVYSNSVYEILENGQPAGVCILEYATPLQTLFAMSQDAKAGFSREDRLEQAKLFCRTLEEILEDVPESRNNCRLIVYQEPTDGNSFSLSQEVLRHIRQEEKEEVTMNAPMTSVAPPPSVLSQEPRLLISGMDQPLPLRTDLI
# B1: short STAT-promoter: 4 STAT motifs separated by 6 nucleotides according to SEQ ID NO: 26 (nucleic acid)
# DNA: ATCTCTGCGATGAACCTCACTTCGCTAGAAATCTCTGCGATGAACCTCACTTCGCTAGAAATATCTCTGCGATGAACCTCACTTCGCTAGAAATCTCTGCGATGAACCTCACTTCGCTAGAAGTGCCTCTTATGATCTGGATCTCGAGCCATGGTCGAGGCCTGTAGGCGTGTACGGTGGGAGGCTTATATAAGCAGAGCTC
# modifications: misc_feature 1..202 STATx4
# B2: IFN-β-promoter: full length IFN-β-promoter according to SEQ ID NO: 25 (nucleic acid, listed as Mus musculus)
# DNA: CCAGGATGTGGGGTTCTCTCCCAAAGGGAGCTATGGCCCATTGATGTGCCATTTCTCTTATAGTACACTATTGTAAGCCCCCTGGGAGCTCACAGAGACCCTCTCCCACCATCCCACTATTTCAAAGGGCAGCAGCTGTGCCATCCTTTCAGGATGAGCAGCTACTCTGCCTGGCTTTTCAGTGGACACTTTGGCTGTTTGAGAGTTCTTTTATCTTCAGGGCTGTCTCCTTTCTGTTCTTCTCTCCTGGATATTTCTCTTCCTTTGCTCCAGCAATTGGTGAAACTGTACAAGATTTTATAAATCCTTAGTTTGTATATATTTTAACCCAGTACATAGCATATAAAATAGCCAGGAGCTTGAATAAAATGAATATTAGAAGCTGTTAGAATAAGAGAAAATGACAGAGGAAAACTGAAAGGGAGAACTGAAAGTGGGAAATTCCTCTGAGGCAGAAAGGACCATCCCTTATAAATAGCACAGGCCATGAAGGAAGATCATTCTCACTGCAGCCTTTGACAGCCTTTGCCTCATCTTGCAGGTAGCAGCCGACACCAGCCTGGCTTCCATC
# modifications: misc_feature 1..571 IFNb1-promoter
# B3: CXCL10-promoter: CXCL10 promoter according to SEQ ID NO: 24 (nucleic acid, listed as Mus musculus)
# DNA: TCTAACTGTTCACTAAGTTGTATAGACTTTGGATCTGGCTAAATTTGGCGTGTGATTTTTTTTTAAAGTTTATTCCAAGTATTTTATAATAAAGCATATGAAGTAAAAAGCAAAAATAAACAGTGTAAACACAACAAATGTAAAAACCATGGTTAGAACCTGACTTAGATATCAGTTCTGTGTTTTATTTATGAGAGAAGGAAGATGAGAATTAAAGCCATTTCCAGACTTATTCTGCAAGGCACTGCATCTGATTTCTCAAACAGCTCACGCTTTGGAAAGTGAAACTTACCTCACTCGTTAAAAATTAAAAGGAGCACAAGAGGGGAGAGGGAAATTCCAAGTTCATGGGTCACAATAAACACAAGCAATGCCCTCGGTTTACAGGGGACTTCCCTCGGGTTGCGGAGCCTTGCTGAGTCATCTCCAAAGTCAGCCAATCAGGACTCAGGGAGGGAAACTCTTTGCAGATAAATACTCCTCAGCAGCCGGCACTCGAGAAGCGCTTCATCCACCGCTGAGAGACATCCCGAGCCAACCTTCCGGAAGCCTCCCCATCAGCACC
# modifications: misc_feature 1..565 CXCL10-promoter
# B4: ISREx4-promoter: 4 ISRE motifs separated by 20 nucleotides according to SEQ ID NO: 12 (nucleic acid)
# DNA: ATCTCTGCGATGAACCTCACAGTTTCGCTTTCTATCTCTGCGATGAACCTCACAGTTTCGCTTTCTATCTCTGCGATGAACCTCACAGTTTCGCTTTCTATCTCTGCGATGAACCTCACAGTTTCGCTTTCTGTGCCTCTTATGATCTGGATCTCGAGCCATGGTCGAGGCCTGTAGGCGTGTACGGTGGGAGGCTTATATAAGCAGAGCTC
# modifications: misc_feature 1..212 ISREx4
# B5: CXCL9-promoter: CXCL9 promoter according to SEQ ID NO: 23 (nucleic acid, listed as Mus musculus)
# DNA: GACACAGACATCTCGTGAAACATCTGGAAAAGGTAGCAGGGAACGGGACAGCAGTAGCTTATGCAACTAATCTAGCAATTACAATGATAGGAAACTGTAGCCACGGTGAGACGAAATGGATTTACCCTCAACAAATTAAGAAGCTTTGACTTGTGAGGAAAGGCAGTTTGAGTCGCCATATAGTGTCATGTCCCACGTGGGAAGTACATCTCCAACCTTCATTGTACAACATTAATATAGTCATTGTATAATCTATTCCACATCCAGGTAGCAACTTTGCCTGGGGGTGGTTTCACATCCCTTACTATAAACTCCCCGTTTATGTGAAATGGAAGTAGAACATGCAGAAATTCCCTGGGATCTGAGAGTAGGGTTTTCCCCAGGACGATCAATTTGTGGTTAGTTTAGTTCTTCTAGGTCAGCTGAGGAGACCAGCCAATCAGAGACGGGAAGGAAAAGGGATTTCCTAAATAAATATGATCCCCAAGAACATGCTCTCTAAAGACATTCTCGGACTTCACTCCAACACAGTGACTCAATAGAACTCAGCTCTGCC
# modifications: misc_feature 1..556 CXCL9-promoter
# B6: IFN-γ: exogenously added interferon, 1,000 IU (protein, UniProt P01579 24-161, looked up)
# Interferon gamma: QDPYVKEAENLKKYFNAGHSDVADNGTLFLGILKNWKEESDRKIMQSQIVSFYFKLFKNFKDDQSIQKSVETIKEDMNVKFFNSNKKKRDDFEKLTNYSVTDLNVQRKAIHELIQVMAELSPAAKTGKRKRSQMLFRG
# How the values were obtained:
# murine STING = target: T1, murine STING; details: cited from earlier work
# B16 cells = assay: Radiation and IFN signaling on activation of the ISREx4 promoter (luciferase); assay type: cell-based, murine; details: B16 cells transduced with AAV8-ISREx4-LucmiR122T
# Protocol: To this end, B16 cells received 8 Gy or 0 Gy as described above and then were transduced with AAV8-ISREx4-LucmiR122T (1×10^5 viral genomes/cell) and 48 h later 1,000 IU of either IFN-α, IFN-β or IFN-γ were added to the culture and luciferase activity was measured 48 h later as described above.
# [1] = system: MC38 cells stably expressing hSTINGmut; assay: Luciferase activity under synthetic promoters; assay type: cell-based, murine; details: DMXAA 50 μg/mL
# Description: (§1) Seven different promoters were generated, namely short STATx4 (4 STAT motifs separated by 6 nucleotides according to SEQ ID NO: 26), IRSF3×4 (4 IRSF3 motifs separated by 20 nucleotides according to SEQ ID NO: 27), short IRSF3×4 (4 IRSF3 motifs separated by 6 nucleotides according to SEQ ID NO: 28), ISREx4 (4 ISRE motifs separated by 20 nucleotides according to SEQ ID NO: 12), short ISREx4 (4 ISRE motifs separated by 6 nucleotides according to SEQ ID NO: 13), NFκBx4 (4 NFκB motifs separated by 20 nucleotides according to SEQ ID NO: 29) and short NFκBx4 (4 NFκB motifs separated by 6 nucleotides according to SEQ ID NO: 30). […] In addition, a plasmid containing the luciferase sequence under the control of the murine IFN-β-promoter (mIFN-β) and a plasmid containing the luciferase sequence under the control of CXCL10-promoter were used as controls. Either MC38 cells or human HEK293T cells, both which stably expressed hSTINGmut as described above (example 1), were transfected with the indicated plasmids using Lipofectamine3000 according to the manufacturers protocol, whereas a negative control was mock-transfected (Basic).
# [2] = system: MC38 cell lines stably expressing hSTINGmut; assay: scIL-12 mRNA and protein expression under STING-activity dependent promoters; assay type: cell-based, murine; details: for scIL-12 mRNA or protein expression upon DMXAA: DMXAA 50 μg/mL
# Description: The CXCL9-promoter and the CXCL10-promoter from experiment 2, and a full length IFN-β-promoter (IFN-β according to SEQ ID NO: 25) were used for the following experiment. To this end, lentiviral vectors encoding murine scIL-12 under the control of these three different promoters were constructed. […] After the indicated time points, cells were harvested. The cell lysate was used to measure scIL-12 mRNA expression by qPCR as described before (example 1, experiment 1), whereas the supernatant was used to measure secreted scIL-12 protein in NUNC MaxiSorp flat-bottom 96-well plates using an ELISA assay kit (OptEIA, Mouse IL-12 (p70), BD Biosciences, San Diego, CA USA), following manufacturer's instructions.
# [3] = system: HEK293T cells stably expressing hSTINGmut; assay: Luciferase activity under synthetic promoters; assay type: cell-based, human; details: for luciferase activity upon DMXAA (inducibility): DMXAA 50 μg/mL; for luciferase activity in the absence of DMXAA (leakage): vehicle
# Description: as §1
# [4] = system: MC38 cell lines stably expressing hSTINGmut; assay: Luciferase activity under chemokine promoters; assay type: cell-based, murine; details: for luciferase activity upon DMXAA: DMXAA 50 μg/mL, 3 or 6 h, compared to the IFN-β promoters; for luciferase activity in the absence of DMXAA (leaky expression): vehicle
# Protocol: The CXCL9-promoter (CXCL9 according to SEQ ID NO: 23) and the CXCL10-promoter (CXCL10 according to SEQ ID NO: 24) were used for the following experiment. To this end, lentiviral vectors encoding luciferase under the control of these two different promoters were constructed. […] In addition, the lentiviral vectors encoding the short IFN-β A promoter, the short IFN-β B promoter, the short IFN-β C promoter described in experiment 1 were used as a comparison. […] After another 3 or 6 h, cells were harvested and luciferase activity measured as described in experiment 1.
# [5] = 1,000 IU interferon alone (0 Gy)
# [6] = interferon together with radiation 8 Gy
molecule,measurement,setting,value
"O=C(O)Cc1cccc2c(=O)cc(-c3ccccc3)oc12 [FAA, flavone-8-acetic acid]",activation of murine STING,murine STING,activated
IFN-α,luciferase activity,B16 cells; [5],significantly increased luciferase activity
same,luciferase activity,B16 cells; [6],induced luciferase activity dramatically
B1,luciferase activity upon DMXAA (inducibility),[1],poor inducibility
B2,scIL-12 mRNA or protein expression upon DMXAA,[2],poor
B3,luciferase activity upon DMXAA (inducibility),[3],highest inducibility
same,luciferase activity in the absence of DMXAA (leakage),[3],considerable leakage
same,luciferase activity upon DMXAA,[4],significantly higher luciferase activities
same,luciferase activity in the absence of DMXAA (leaky expression),[4],significant luciferase activity
same,scIL-12 mRNA or protein expression upon DMXAA,[2],highly upregulated
same,scIL-12 production in the absence of DMXAA (leakage),[2]; vehicle,significant leakage
B4,luciferase activity upon DMXAA (inducibility),[3],highest inducibility
same,luciferase activity in the absence of DMXAA (leakage),[3],undetectable leakage
B5,luciferase activity upon DMXAA,[4],significantly higher luciferase activities
same,luciferase activity in the absence of DMXAA (leaky expression),[4],significant luciferase activity
same,scIL-12 mRNA or protein expression upon DMXAA,[2],poor
B6,luciferase activity,B16 cells; [5],significantly increased luciferase activity
same,luciferase activity,B16 cells; [6],induced luciferase activity dramatically

# — US20250188143A1, “COMBINED GENE AND RADIO THERAPY FOR THE TREATMENT OF CANCER” (FUNDACION PARA LA INVESTIGACION MEDICA APLICADA, priority 2022, published 2025)
